Patent US20260356924 (published 2026)
Changes are numbered by the printed parent chain. Values belong to the binder of their own block, whether it stands above or below them.

How the values were obtained:
[1] = target: iPHF (human, UniProt P10636); test: SPR
[2] = target: ePHF (human, UniProt P10636); test: ELISA
[3] = target: wild type tau (human); test: ELISA
Chain of wild type tau (human) (P10636 other isoform, or with tags, fused parts or gaps): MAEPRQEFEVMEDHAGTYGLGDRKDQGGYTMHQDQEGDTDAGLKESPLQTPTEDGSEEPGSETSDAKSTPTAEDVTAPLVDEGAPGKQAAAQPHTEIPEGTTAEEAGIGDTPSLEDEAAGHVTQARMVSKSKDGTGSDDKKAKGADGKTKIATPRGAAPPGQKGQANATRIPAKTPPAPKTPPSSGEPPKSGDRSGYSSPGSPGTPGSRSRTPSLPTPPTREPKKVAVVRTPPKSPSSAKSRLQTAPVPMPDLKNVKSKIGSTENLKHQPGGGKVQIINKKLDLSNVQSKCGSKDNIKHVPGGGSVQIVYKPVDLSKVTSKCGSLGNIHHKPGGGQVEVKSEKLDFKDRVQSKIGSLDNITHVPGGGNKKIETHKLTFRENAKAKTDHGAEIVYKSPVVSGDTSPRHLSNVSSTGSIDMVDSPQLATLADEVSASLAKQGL

Chain of ePHF (P10636 2-758): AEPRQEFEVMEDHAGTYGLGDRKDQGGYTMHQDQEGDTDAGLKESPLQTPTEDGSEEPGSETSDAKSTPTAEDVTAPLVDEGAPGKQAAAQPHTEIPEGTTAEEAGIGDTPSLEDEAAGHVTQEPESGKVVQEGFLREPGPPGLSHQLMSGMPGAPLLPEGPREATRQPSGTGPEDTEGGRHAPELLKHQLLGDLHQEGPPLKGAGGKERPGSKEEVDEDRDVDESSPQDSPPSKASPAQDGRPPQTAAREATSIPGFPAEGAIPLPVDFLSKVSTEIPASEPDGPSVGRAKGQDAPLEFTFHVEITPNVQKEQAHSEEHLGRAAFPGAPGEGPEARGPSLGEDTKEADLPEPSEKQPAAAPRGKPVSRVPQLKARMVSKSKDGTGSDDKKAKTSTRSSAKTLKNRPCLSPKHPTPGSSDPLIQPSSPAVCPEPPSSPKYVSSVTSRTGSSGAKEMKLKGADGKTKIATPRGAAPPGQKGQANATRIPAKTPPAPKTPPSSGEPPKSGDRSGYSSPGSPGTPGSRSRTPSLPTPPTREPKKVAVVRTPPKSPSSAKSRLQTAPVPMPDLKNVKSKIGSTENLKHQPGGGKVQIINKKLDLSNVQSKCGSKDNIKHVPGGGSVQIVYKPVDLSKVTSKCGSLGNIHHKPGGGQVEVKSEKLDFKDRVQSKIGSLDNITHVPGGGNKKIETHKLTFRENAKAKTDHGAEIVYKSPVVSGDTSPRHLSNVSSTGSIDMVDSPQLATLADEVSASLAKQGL
Chain of iPHF (P10636 2-758): as above

- Kd [1]: 16.2 pM
B1: hV0022 control (antibody, V domains shown)
VH: QVQLQQPGTELVKPGSSVNLSCKASGFTFTRYWMHWVKERPGHGLEWIGNINPNNGGTDFNEKFKNKATLTVHKSSTTVFIQLSSLTSEDSAVYYCARGTGTGAMDYWGQGTSVTVSS
VL: DVVMTQTPLSLPVSLGDQASISCRSSQSLVHNNGITYLYWYLQKPGQSPKLLIYRVSNRFSGVPDRFGGSGSGTDFTLKISRVEAEDLGVYFCFQGTHVPRTFGGGTKLEIK
modifications: immunopurified paired helical filament tau, hyperphosphorylated

- Kd [1]: 16.5 pM
B2: V0022 control (antibody, V domains shown)
VH: B1 VH
VL: B1 VL
modifications: immunopurified paired helical filament tau, hyperphosphorylated

- EC50 [2]: 80 pM
B3: hV0022 control (antibody, V domains shown)
VH: B1 VH
VL: B1 VL
modifications: enriched paired helical filament tau, hyperphosphorylated

- Kd [1]: 33.4 pM
B4: Ab7 (antibody, V domains shown)
VH: QVQLVQSGAEVKKPGASVKVSCKASGFTFTRYWMHWVRERPGHGLEWIGNINPNNGGTDFNEKFKNRVTMTVHKSISTAYMELSSLRSDDSAVYYCARGTGTGAMDYWGQGTLVTVSS
VL: DVVMTQSPLSLPVTLGQPASISCRSSQSLVHNNGITYLYWYQQRPGQSPRLLIYRVSNRFSGVPDRFSGSGSGTDFTLKISRVEAEDVGVYYCFQGTHVPRTFGQGTKLEIK
modifications: immunopurified paired helical filament tau, hyperphosphorylated

- binding result [3]: no binding
B5: Ab7 (antibody, V domains shown)
VH: B4 VH
VL: B4 VL
modifications: non-phosphorylated recombinant tau

- EC50 [2]: 130 pM
B6: Ab7 (antibody, V domains shown)
VH: B4 VH
VL: B4 VL
modifications: enriched paired helical filament tau, hyperphosphorylated

- Kd [1]: 30.4 pM
B7: Ab10 (antibody, V domains shown)
VH: B4 VH with Q1E, A16S, R38K, S77T, S85R, R87T, T115S
VL: B4 VL with V2I, S7T, L11S, S48P, S72A, S81N, Y92F
modifications: immunopurified paired helical filament tau, hyperphosphorylated

- Kd [1]: 24.9 pM
B8: Ab11 (antibody, V domains shown)
VH: QVQLVQSGAEVKKPGASVKVSCKASGFTFTRYWMHWVKERPGQGLEWMGNINPNNGGTDFNEKFKNRVTMTVHKSTSTVFIQLSSLRSEDTAVYYCARGTGTGAMDYWGQGTSVTVSS
VL: B4 VL
modifications: immunopurified paired helical filament tau, hyperphosphorylated

- binding result [3]: no binding
B9: Ab3 (antibody, V domains shown)
VH: B4 VH with Q1E, A16S, R38K, S77T, S85R, R87T, T115S
VL: B4 VL
modifications: non-phosphorylated recombinant tau

- Kd [1]: 43.4 pM
B10: Ab1 (antibody, V domains shown)
VH: QVQLVQSGAEVKKSGASVKVSCKASGFTFTRYWMHWVRQAPGQGLEWIGNINPNNGGTDFNEKFKNRVTLIRDTSTTTVFIQLTSLTSEDSAVYYCARGTGTGAMDYWGQGTLVTVSS
VL: B4 VL with V2I, P12S, L15P, Q42L, R44K, R50Q, L109V
modifications: immunopurified paired helical filament tau, hyperphosphorylated

- EC50 [2]: 160 pM
B11: Ab11 (antibody, V domains shown)
VH: B8 VH
VL: B4 VL
modifications: enriched paired helical filament tau, hyperphosphorylated

- EC50 [2]: 180 pM
B12: Ab4 (antibody, V domains shown)
VH: B8 VH
VL: B4 VL with V2I, P12S, L15P, Q42L, R44K, R50Q, L109V
modifications: enriched paired helical filament tau, hyperphosphorylated

- EC50 [2]: 170 pM
B13: Ab8 (antibody, V domains shown)
VH: B10 VH
VL: B4 VL
modifications: enriched paired helical filament tau, hyperphosphorylated

- Kd [1]: 39.1 pM
B14: Ab6 (antibody, V domains shown)
VH: B4 VH with Q6E, R38K, I48M, M70I, I76A, D89E, S91T, L113T
VL: B4 VL with V2I, P12S, L15P, Q42L, R44K, R50Q, L109V
modifications: immunopurified paired helical filament tau, hyperphosphorylated

- Kd [1]: 35.3 pM
B15: Ab4 (antibody, V domains shown)
VH: B8 VH
VL: B4 VL with V2I, P12S, L15P, Q42L, R44K, R50Q, L109V
modifications: immunopurified paired helical filament tau, hyperphosphorylated

- EC50 [2]: 150 pM
B16: Ab2 (antibody, V domains shown)
VH: B4 VH with Q6E, R38K, I48M, M70I, I76A, D89E, S91T, L113T
VL: B4 VL
modifications: enriched paired helical filament tau, hyperphosphorylated

- Kd [1]: 32.5 pM
B17: Ab3 (antibody, V domains shown)
VH: B4 VH with Q1E, A16S, R38K, S77T, S85R, R87T, T115S
VL: B4 VL
modifications: immunopurified paired helical filament tau, hyperphosphorylated

- Kd [1]: 49.6 pM
B18: Ab8 (antibody, V domains shown)
VH: B10 VH
VL: B4 VL
modifications: immunopurified paired helical filament tau, hyperphosphorylated

- EC50 [2]: 85 pM
B19: Ab1 (antibody, V domains shown)
VH: B10 VH
VL: B4 VL with V2I, P12S, L15P, Q42L, R44K, R50Q, L109V
modifications: enriched paired helical filament tau, hyperphosphorylated

- EC50 [2]: 95 pM
B20: Ab3 (antibody, V domains shown)
VH: B4 VH with Q1E, A16S, R38K, S77T, S85R, R87T, T115S
VL: B4 VL
modifications: enriched paired helical filament tau, hyperphosphorylated

- Kd [1]: 44 pM
B21: Ab9 (antibody, V domains shown)
VH: B4 VH with Q1E, A16S, R38K, S77T, S85R, R87T, T115S
VL: B4 VL with V2I, P12S, L15P, Q42L, R44K, R50Q, L109V
modifications: immunopurified paired helical filament tau, hyperphosphorylated

- EC50 [2]: 100 pM
B22: Ab9 (antibody, V domains shown)
VH: B4 VH with Q1E, A16S, R38K, S77T, S85R, R87T, T115S
VL: B4 VL with V2I, P12S, L15P, Q42L, R44K, R50Q, L109V
modifications: enriched paired helical filament tau, hyperphosphorylated

- EC50 [2]: 160 pM
B23: Ab6 (antibody, V domains shown)
VH: B4 VH with Q6E, R38K, I48M, M70I, I76A, D89E, S91T, L113T
VL: B4 VL with V2I, P12S, L15P, Q42L, R44K, R50Q, L109V
modifications: enriched paired helical filament tau, hyperphosphorylated

- Kd [1]: 24.8 pM
B24: Ab5 (antibody, V domains shown)
VH: B8 VH
VL: B4 VL with V2I, S7T, L11S, S48P, S72A, S81N, Y92F
modifications: immunopurified paired helical filament tau, hyperphosphorylated

- EC50 [2]: 190 pM
B25: Ab5 (antibody, V domains shown)
VH: B8 VH
VL: B4 VL with V2I, S7T, L11S, S48P, S72A, S81N, Y92F
modifications: enriched paired helical filament tau, hyperphosphorylated

- Kd [1]: 29.3 pM
B26: Ab2 (antibody, V domains shown)
VH: B4 VH with Q6E, R38K, I48M, M70I, I76A, D89E, S91T, L113T
VL: B4 VL
modifications: immunopurified paired helical filament tau, hyperphosphorylated

- EC50 [2]: 140 pM
B27: Ab10 (antibody, V domains shown)
VH: B4 VH with Q1E, A16S, R38K, S77T, S85R, R87T, T115S
VL: B4 VL with V2I, S7T, L11S, S48P, S72A, S81N, Y92F
modifications: enriched paired helical filament tau, hyperphosphorylated

- binding result [3]: no binding
B28: Ab11 (antibody, V domains shown)
VH: B8 VH
VL: B4 VL
modifications: non-phosphorylated recombinant tau
